Source: US20240033374A1, “Nano-structural Protein Degradation Tool, Use, and Preparation Method thereof, and Lipid-based Protein Degradation Tool, Use, and Preparation Method thereof” (HENAN UNIVERSITY, priority 2022, published 2024)

Legend:
β-amyloid 1-42 oligomer = molecular target: T1, β-amyloid 1-42 oligomer (Homo sapiens, UniProt P05067); assay: Endocytosis of FITC-labeled β-amyloid 1-42 oligomer in human glial cells, confocal microscope; type: cell-based; details: 10 μM, 12 hours
T1 construct: oligomers prepared from FITC green dye-labeled β-amyloid 1-42 polypeptide; host or cells: exogenous peptide added to human glial cells
T1 sequence (P05067 672-713 limits assumed): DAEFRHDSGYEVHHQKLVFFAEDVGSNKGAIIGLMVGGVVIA
Experimental: 1 μM FITC fluorescein-labeled 5 μM β-amyloid oligomer and AB-NP were co-cultured in human glial cells for 4 hours, subsequently extracellular solution was washed away with PBS. […] The lysosome theoretically can degrade β-amyloid so as to eliminate toxicity brought about by β-amyloid extracellular accumulation. (3) β-amyloid hijack experiment: 10 μM oligomers prepared from FITC green dye-labeled 3-amyloid 1-42 peptide and 10 μM AV45-NP were co-incubated, then, the treated residue not entering the cell was washed off with PBS, followed by confocal microscope imaging, to detect green fluorescence of the β-amyloid 1-42 oligomers. […] The lysosomal dye lysoTracker was used to label the lysosome. […] 10 μM AV-45 or AV45-NP and 10 μM FITC green fluorescence dye-labeled β-amyloid oligomers were co-incubated in culture medium and treated human glial cells for 12 hours.

human glioma in situ = assay: In situ glioma model, immunohistochemical detection of EGFR and PCNA; type: in vivo, nude mice; details: 10 mg/kg intravenous, every other day, 5 times
Experimental: The administration was performed once every other day, 5 times in total, and after the administration cycle was completed, the mice were euthanized the next day, the brain tissues were taken and paraffin-embedded, and sectioned for immunohistochemical staining to study the protein degradation effect of NTZ on target protein EGFR and the tumor inhibition by detecting the tumor proliferation marker PCNA.

EGFR [1] = molecular target: T2, EGFR (Homo sapiens, UniProt P00533); assay: EGFR protein degradation in cells, protein electrophoresis (Western blot); type: cell-based
T2 construct: can degrade the membrane receptor protein EGFR in various tumor cells; endogenous in cells; host or cells: MDA-MB-231 (M231), HeLa, U87
Experimental: In the above, the NP group refers to nanoparticles not linked with the POI recognition groups in the example. In all the examples involving multi-concentration test, the control group for POI recognition group and the control group for lipid hybrid substance were treated with the molar concentration equal to the highest concentration in concentration test group. All the protein electropherograms take GAPDH or VIN (vinculin) as internal reference.

EGFR [2] = molecular target: T2, EGFR; assay: EGFR on cell surfaces, immunofluorescent staining and confocal microscopy, M231 cells; type: cell-based; details: 500 nM antibodies, 24 hours
EGFP-labeled fused EGFR = molecular target: T3, EGFP-labeled fused EGFR (Homo sapiens, UniProt P00533); assay: Live-cell confocal imaging of EGFP-fused EGFR in M231 cells; type: cell-based; details: M231 living cells, fixed visual field, photographed continuously
T3 construct: expressed in transfected cells; host or cells: MDA-MB-231 (M231)

[3] = Acute toxicity, blood parameters of liver and kidney function after a single administration; type: in vivo, mice; details: 10 mg/kg via tail vein, blood 12 hours after injection
Experimental: In the present example, acute hepatotoxicity on mice by the NTZ-NP nano-structural protein degradation tool was studied. The nanoparticles, the solvent PBS control, NTZ antibodies of equal molar quantity, and NP of equal molar quantity without NTZ antibodies (10 mg/kg) were injected into mice via tail vein, blood was taken 12 hours after injection, and blood biochemical indicators were detected by a kit.

[4] = Dynamic light scattering particle size and PDI; type: physicochemical
Excerpt: FIG. 68 is a structural schematic diagram of CTX-RBCmD. FIG. 69 is a diagram of DLS particle size distribution results.

HepG2 cells = assay: CCK8 cell viability assay; type: cell-based, human; details: 500 nM antibody, 24 h, p<0.001
PD-1 receptor protein = molecular target: T4, PD-1 receptor protein (Homo sapiens, UniProt Q15116); assay: PD-1 expression in JURKAT cells overexpressing PD-1, protein electrophoresis; type: cell-based; details: JURKAT cells overexpressing PD-1, 500 nM, 24 h
T4 construct: expressed in transfected cells; host or cells: JURKAT cells overexpressing PD-1
T4 sequence (Q15116 25-288): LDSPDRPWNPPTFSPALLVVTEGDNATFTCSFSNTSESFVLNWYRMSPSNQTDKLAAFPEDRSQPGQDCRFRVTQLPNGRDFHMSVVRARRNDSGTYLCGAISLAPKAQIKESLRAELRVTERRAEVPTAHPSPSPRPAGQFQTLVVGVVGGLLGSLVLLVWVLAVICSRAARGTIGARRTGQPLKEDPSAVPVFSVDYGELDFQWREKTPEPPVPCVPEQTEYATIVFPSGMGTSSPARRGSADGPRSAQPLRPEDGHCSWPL

[5] = M231 cells, 500 nM, fresh medium without treatment from the 24th hour

Experimental for M231 tumor: Administration every other day (15 mg/kg) was started on day 10 of inoculation of M231 tumor in female nude mice at 6-8 weeks of age, and a volume of the tumor (tumor length: a and width: b, volume calculation formula: ½ab^2) of the mice and body weight change were continuously monitored. After two weeks of administration, 7 times in total, the mice were euthanized the next day after the last administration, tumor tissues were isolated, and the tumor tissues were subjected to protein electrophoresis and immunofluorescence detection.
In the above, after being isolated, the tumor tissues were paraffin-embedded and sectioned, followed by immunofluorescence staining, and immunofluorescence staining results of EGFR and apoptotic core signal cleaved caspase-3 were detected.

CNc1ccc(/C=C/c2ccc(OCCOCCOCCF)nc2)cc1 [AV45, AV-45]
AV45 autofluorescence in cells (cell internalization) (β-amyloid 1-42 oligomer): very weak

ANG/NTZ-NP: NTZ-PEG-DSPE plus 20% Angiopep2-PEG-DSPE self-assembled with PLGA
EGFR in brain tumor (immunohistochemistry) (human glioma in situ): solvent PBS control group and the NTZ-NP group are stronger than the ANG/NTZ-NP group | proliferation marker PCNA in brain tumor (immunohistochemistry) (human glioma in situ): solvent PBS control group and the NTZ-NP group are stronger than the ANG/NTZ-NP group

NTZ-LNP2: NTZ-PEG-DMG with HSPC + cholesterol + DOTAP lipid nanoparticle
EGFR protein expression (protein electrophoresis) (EGFR [1]; M231 cells, 24 h, concentration not given): can effectively degrade the target protein EGFR

NTZ-NP: PLGA nanoparticle core, PEG-DSPE intermediate layer, NTZ antibodies at periphery
EGFR expression on cell surfaces (immunofluorescence) (EGFR [2]): remarkably decreased | EGFR expression (protein electrophoresis) (EGFR [1]; HeLa cells, 500 nM, 24 h): obvious decreases in EGFR expression | EGFR protein level / expression (protein electrophoresis) (EGFR [1]; M231 cells, 500 nM, 24 h): obvious decreases in EGFR expression | EGFR gradually recovered after (EGFR [1]; [5]): > 72 h | optimal degradation time for a single treatment (EGFR [1]; [5]): 24 to 48 h | concentration at which EGFR is effectively degraded (as low as) (EGFR [1]; M231 cells, 24 h): 10 nM | EGFR expression (protein electrophoresis) (EGFR [1]; U87 cells, 500 nM, 24 h): obvious decreases in EGFR expression | EGFR in brain tumor (immunohistochemistry) (human glioma in situ): stronger than the ANG/NTZ-NP group | proliferation marker PCNA in brain tumor (immunohistochemistry) (human glioma in situ): stronger than the ANG/NTZ-NP group | green fluorescence signal of EGFP-labeled fused EGFR (EGFP-labeled fused EGFR): gradually decreases over time | blood parameters BUN, UA, CR, ALB, ALP, ALT, AST [3]: no obvious abnormality | EGFR protein expression level in isolated tumor tissues (protein electrophoresis) (M231 tumor; 15 mg/kg every other day, 7 times, five mice, p<0.05): significantly down-regulated | tumor volume proliferation (M231 tumor; 15 mg/kg every other day, 7 times, versus PBS, equal molar NTZ antibody and antibody-free nanoparticle groups): obviously inhibited | EGFR signal in tumor tissues (immunofluorescence staining) (M231 tumor; after treatment completed): EGFR signal is reduced | apoptotic signal cleaved caspase-3 in tumor tissues (immunofluorescence staining) (M231 tumor; after treatment completed): apoptotic signal rises | particle size (dynamic light scattering) [4]: about 150 nm | cell proliferation (CCK8 cell viability) (HepG2 cells): significantly inhibited

NTZ-PEGlipo: NTZ antibody coupled to NHS-PEG liposomes (HSPC + cholesterol)
EGFR protein level / expression (protein electrophoresis) (EGFR [1]; M231 cells, 500 nM, 24 h): can effectively degrade the target protein EGFR

NTZ-lipoP: NTZ-PEG-DSPE on HSPC/cholesterol lipid membrane wrapping PLGA nanoparticles
SIZE (DLS particle size) [4]: 257 ± 7.0

B1: CRLZ-NP: Camrelizumab (CRLZ), PEG-DSPE linker, PLGA nanoparticle (conjugate, chains of the INN, looked up)
VH: EVQLVESGGGLVQPGGSLRLSCAASGFTFSSYMMSWVRQAPGKGLEWVATISGGGANTYYPDSVKGRFTISRDNAKNSLYLQMNSLRAEDTAVYYCARQLYYFDYWGQGTTVTVSS
VL: DIQMTQSPSSLSASVGDRVTITCLASQTIGTWLTWYQQKPGKAPKLLIYTATSLADGVPSRFSGSGSGTDFTLTISSLQPEDFATYYCQQVYSIPWTFGGGTKVEIK
modifications: PEG-DSPE PLGA nanoparticle
expression of PD-1 receptor protein (PD-1 receptor protein): obviously reduced
